Measured values taken from patent US20240352438A1, “MEANS AND METHODS FOR DETOXIFYING OCHRATOXIN A” (DSM Austria GmbH, priority 2021, published 2024).

Assays:
[1] = OTA detoxification activity assay (specific activity, fluorescence reduction ex/em 390/450 nm); assay type: biochemical; settings: SEQ ID NO: 1 = 100%
Summary of the method: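 Recombinant enzyme preparation with 200 ng/mL OTA in 100 mM sodium phosphate, at pH 6.0 and pH 7.5, 37° C. Degradation followed as the fall in fluorescence at ex/em 390/450 nm. Specific activity taken from the initial linear slope; one unit degrades 1 μmol OTA per min at a starting OTA of […].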

[2] = Enzymatic activity comparison: activity remaining after 65° C. for 10 min at pH 6.0, relative to SEQ ID NO: 1; assay type: physicochemical
Procedure: To compare the temperature behavior and thermostability of selected enzymes to one another, enzyme was incubated at 65° C. for 10 min at pH 6.0. The enzymatic activity remaining after incubation was compared to the remaining activity of the enzyme of SEQ ID NO: 1 after incubation, the latter being set to 100%, see Table 16.

B1: 208 (protein)
chain: MTTRTRILTAFLSLLAANACAADAAPAAPPTVVLRAARMFDGASGKLVDHPQLTIVGNKIVRIAQGDKAEVPAGAEVVDLGDATLLPGFIDAHVHLSGQSSDNWYGDFFDNMMRFPAEQALYGAYYARITLEAGFTSVRDVGSTDWVALGLRNAIDAGKVPGPRMLVSNYAVGSTGGHADQDPIPPHKLPLAGPLQGVCNGPEECRAAVRYQIKYGANVIKFMPSGGVLSLSDPVDAPELSQDEMNAVIGESHAWGRKVAAHAHGDKAAKMAVAAGVDSIEHGSFIEDDTLRAMKAKNVYLVPTISAIAHVEEKIGTFPPVIAEKGRAAAAHLRQTFRHAVQIGVPIALGTDAGVGAHGSNAREFRYMVENGLTPAQALLAGTANAARLLGTFDRVGTLEAGKLADVVAVPGNPIADITVTERPLFVMKDGVVVRRDAVR
modifications: exemplary polypeptide
Specific OTA detoxification activities in % compared to the enzyme of SEQ ID NO: 1, pH 6.0 [1]: 135% | Specific OTA detoxification activities in % compared to the enzyme of SEQ ID NO: 1, pH 7.5 [1]: 108% | Enzymatic activity remaining after incubation, compared to SEQ ID NO: 1 (set to 100%) [2]: 35%

B2: 211 (protein)
chain: MTTRTRILTAFLSLLAANACAADAAPAAPHTVVLRAARMFDGASGKLVDNPQLTIVGNKIVRIAQGDKAEVPAGAEVVDLGDATLLPGFIDAHVHLSGQSSDNWYGDFFDNMMRFPAEQALYGAYYARITLEAGFTSVRDVGSTDWVALGLRNAIDAGKVPGPRMLVSNYAVGSTGGHADQDPIPPHKLPLAGPLQGVCNGPEECRAAVRYQIKYGANVIKFMPSGGVLSLSDPVDAPELSQDEMNAVIGESHAWGRKVAAHAHGDKAAKMAVAAGVDSIEHGSFIEDDTLRAMKAKNVYLVPTISAIAHVEEKIGTFPPVIAEKGRAAAAHLRQTFRHAVQIGVPIALGTDAGVGAHGSNAREFRYMVENGLTPAQALLAGTANAARLLGTFDRVGTLEAGKLADVVAVPGNPIADITVTERPLFVMKDGVVVRRDAVR
modifications: exemplary polypeptide
Specific OTA detoxification activities in % compared to the enzyme of SEQ ID NO: 1, pH 6.0 [1]: 121% | Specific OTA detoxification activities in % compared to the enzyme of SEQ ID NO: 1, pH 7.5 [1]: 111% | Enzymatic activity remaining after incubation, compared to SEQ ID NO: 1 (set to 100%) [2]: 34%

B3: 210 (protein)
chain: MTTRTRILTAFLSLLAANACAADAAPAAPHTVVLRAARMFDGASGKLVDDPQLTIVGNKIVRIAQGDKAEVPAGAEVVDLGDATLLPGFIDAHVHLSGQSSDNWYGDFFDNMMRFPAEQALYGAYYARITLEAGFTSVRDVGSTDWVALGLRNAIDAGKVPGPRMLVSNYAVGSTGGHADQDPIPPHKLPLAGPLQGVCNGPEECRAAVRYQIKYGANVIKFMPSGGVLSLSDPVDAPELSQDEMNAVIGESHAWGRKVAAHAHGDKAAKMAVAAGVDSIEHGSFIEDDTLRAMKAKNVYLVPTISAIAHVEEKIGTFPPVIAEKGRAAAAHLRQTFRHAVQIGVPIALGTDAGVGAHGSNAREFRYMVENGLTPAQALLAGTANAARLLGTFDRVGTLEAGKLADVVAVPGNPIADITVTERPLFVMKDGVVVRRDAVR
modifications: exemplary polypeptide
Specific OTA detoxification activities in % compared to the enzyme of SEQ ID NO: 1, pH 6.0 [1]: 93% | Specific OTA detoxification activities in % compared to the enzyme of SEQ ID NO: 1, pH 7.5 [1]: 102% | Enzymatic activity remaining after incubation, compared to SEQ ID NO: 1 (set to 100%) [2]: 39%

B4: 214 (protein)
chain: MTTRTRILTAFLSLLAANACAADAAPAAPHTVVLRAARMFDGASGKLVDHPQLTIVGNKIVRIAQGDKAEVPAGAEVVDLGDATLLPGFIDAHVHLSGQSSDDWYGDFFDNMMRFPAEQALYGAYYARITLEAGFTSVRDVGSTDWVALGLRNAIDAGKVPGPRMLVSNYAVGSTGGHADQDPIPPHKLPLAGPLQGVCNGPEECRAAVRYQIKYGANVIKFMPSGGVLSLSDPVDAPELSQDEMNAVIGESHAWGRKVAAHAHGDKAAKMAVAAGVDSIEHGSFIEDDTLRAMKAKNVYLVPTISAIAHVEEKIGTFPPVIAEKGRAAAAHLRQTFRHAVQIGVPIALGTDAGVGAHGSNAREFRYMVENGLTPAQALLAGTANAARLLGTFDRVGTLEAGKLADVVAVPGNPIADITVTERPLFVMKDGVVVRRDAVR
modifications: exemplary polypeptide
Specific OTA detoxification activities in % compared to the enzyme of SEQ ID NO: 1, pH 6.0 [1]: 123% | Specific OTA detoxification activities in % compared to the enzyme of SEQ ID NO: 1, pH 7.5 [1]: 108% | Enzymatic activity remaining after incubation, compared to SEQ ID NO: 1 (set to 100%) [2]: 59%

B5: 216 (protein)
chain: MTTRTRILTAFLSLLAANACAADAAPAAPHTVVLRAARMFDGASGKLVDHPQLTIVGNKIVRIAQGDKAEVPAGAEVVDLGDATLLPGFIDAHVHLSGQSSDQWYGDFFDNMMRFPAEQALYGAYYARITLEAGFTSVRDVGSTDWVALGLRNAIDAGKVPGPRMLVSNYAVGSTGGHADQDPIPPHKLPLAGPLQGVCNGPEECRAAVRYQIKYGANVIKFMPSGGVLSLSDPVDAPELSQDEMNAVIGESHAWGRKVAAHAHGDKAAKMAVAAGVDSIEHGSFIEDDTLRAMKAKNVYLVPTISAIAHVEEKIGTFPPVIAEKGRAAAAHLRQTFRHAVQIGVPIALGTDAGVGAHGSNAREFRYMVENGLTPAQALLAGTANAARLLGTFDRVGTLEAGKLADVVAVPGNPIADITVTERPLFVMKDGVVVRRDAVR
modifications: exemplary polypeptide
Specific OTA detoxification activities in % compared to the enzyme of SEQ ID NO: 1, pH 6.0 [1]: 147% | Specific OTA detoxification activities in % compared to the enzyme of SEQ ID NO: 1, pH 7.5 [1]: 115% | Enzymatic activity remaining after incubation, compared to SEQ ID NO: 1 (set to 100%) [2]: 14%

B6: 209 (protein)
chain: MTTRTRILTAFLSLLAANACAADAAPAAPRTVVLRAARMFDGASGKLVDHPQLTIVGNKIVRIAQGDKAEVPAGAEVVDLGDATLLPGFIDAHVHLSGQSSDNWYGDFFDNMMRFPAEQALYGAYYARITLEAGFTSVRDVGSTDWVALGLRNAIDAGKVPGPRMLVSNYAVGSTGGHADQDPIPPHKLPLAGPLQGVCNGPEECRAAVRYQIKYGANVIKFMPSGGVLSLSDPVDAPELSQDEMNAVIGESHAWGRKVAAHAHGDKAAKMAVAAGVDSIEHGSFIEDDTLRAMKAKNVYLVPTISAIAHVEEKIGTFPPVIAEKGRAAAAHLRQTFRHAVQIGVPIALGTDAGVGAHGSNAREFRYMVENGLTPAQALLAGTANAARLLGTFDRVGTLEAGKLADVVAVPGNPIADITVTERPLFVMKDGVVVRRDAVR
modifications: exemplary polypeptide
Specific OTA detoxification activities in % compared to the enzyme of SEQ ID NO: 1, pH 6.0 [1]: 143% | Specific OTA detoxification activities in % compared to the enzyme of SEQ ID NO: 1, pH 7.5 [1]: 88% | Enzymatic activity remaining after incubation, compared to SEQ ID NO: 1 (set to 100%) [2]: 31%

B7: 213 (protein)
chain: MTTRTRILTAFLSLLAANACAADAAPAAPHTVVLRAARMFDGASGKLVDHPQLTIVGNKIVRIAQGDKAEVPAGAEVVDLGDATLLPGFIDAHVHLSGQDSDNWYGDFFDNMMRFPAEQALYGAYYARITLEAGFTSVRDVGSTDWVALGLRNAIDAGKVPGPRMLVSNYAVGSTGGHADQDPIPPHKLPLAGPLQGVCNGPEECRAAVRYQIKYGANVIKFMPSGGVLSLSDPVDAPELSQDEMNAVIGESHAWGRKVAAHAHGDKAAKMAVAAGVDSIEHGSFIEDDTLRAMKAKNVYLVPTISAIAHVEEKIGTFPPVIAEKGRAAAAHLRQTFRHAVQIGVPIALGTDAGVGAHGSNAREFRYMVENGLTPAQALLAGTANAARLLGTFDRVGTLEAGKLADVVAVPGNPIADITVTERPLFVMKDGVVVRRDAVR
modifications: exemplary polypeptide
Specific OTA detoxification activities in % compared to the enzyme of SEQ ID NO: 1, pH 6.0 [1]: 76% | Specific OTA detoxification activities in % compared to the enzyme of SEQ ID NO: 1, pH 7.5 [1]: 39% | Enzymatic activity remaining after incubation, compared to SEQ ID NO: 1 (set to 100%) [2]: 25%
